Laboratory results taken from the nanobody polyreactivity screen of Harvey et al. (2022).

Assay: yeast display, Sf9 membrane polyspecificity reagent, FACS + sequencing; frameworks hold sequencing errors
Procedure, shortened: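 In a synthetic yeast display library (Saccharomyces cerevisiae BJ5465), nanobody expression was induced with galactose for 36–48 hours. FACS gates were set low and high (top ~1%) using anti-HA fluorescence for expression and streptavidin fluorescence for binding of the Sf9 membrane reagent. Each polyreactivity label is drawn from the gate of origin.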

Sequence | polyreactivity (PSR sort gate)
QVQLVESGGGLVQAGGSLRLSCAASGFTFPYNAMGWYRQPPGKERELVAAISRGAGRTYYADSVKGRFTISRDNAKNTVYLQMNSLKQEDTAVYYCAKAPGQDTPYPYGYWGQGTQVTVSS | high polyreactivity
QVQLVESGGGLVQAGGSLRLSCAASGSIFAGNAMGWYRQAPGKERELVAAISWRGGSTYYADSVKGRFTISRDNAKNTVYLQMNSLKPEDTAVYYCAATWYDRRTFFYKYDYWGQGTQVTVSS | low polyreactivity
QVQLVESGGGLVQAGGSLRLSCAASGSIFTYNAMGWYRQAPGKERELVASITWSGGSTYYADSVKGRFTISRDNAKNTVYLQMNSLKPEDTAVYYCAAKRVHGATGYWGQGTQVTVSS | high polyreactivity
QVQLVESGGGLVQAGGSLRLSCAASGYTGVYALGWYRQAPGKERELVADITSGGNTDYADSVKGRFTISRDNAKNTVYLQMNSLKPEDTAVYYCATPYRRLNTWIYDYWGQGTQVTVSS | high polyreactivity
QVQLVESGGGLVQAGGSLRLSCAASGRTFYYAMGWYRQAPGTERELVATITSGGSTNYADSVKGRFTISRDNAKNTVYLQMNSLKPEDTAVYYCNRDIPPGNYYKALYYYWGQGTQVTVSS | low polyreactivity
QLQLVESGAGLVKAGGSLRISSAASGYTFGRNTMGCYRQAPGKERELVAAITRRGGSTNYADSVKGRFTISRDNAKNTVYLQMNSLKQEDTAVYYCARDYRSYTGSYDSSYDYWGQGTQVTVSS | high polyreactivity
QVQLVESGGGLVQAGGSLRLSSAASGSIFDSNALGWYRQARGKERELVAAISLSGGSTYYADSVKGRFTISRDNAKNTVYLQMKSLKPEDTAVYYCAKDGWYEYYWGQGTQVTVSS | low polyreactivity
QVQLVESGGGLDQAGGSLRLSCAASGYILPKNTMGWYRQAPGKERELVAAISWSGGSTFYADSVKGRFTISRDNAKNTVYLQMNSLKPEETAVYYCAADRSWSWYYRYDYWGQGTQVTVSS | low polyreactivity
QVQLVESGGGLVQAGGSLRLSCAASGLIFQHNAMGWYRQAPGKEMELVAAISRSAGSTYYADSVKGRFTISRDKAKNTVYLQMNSLKPEDTAVYYCARQYGYQPVRYGYWGQGTQVTVSS | low polyreactivity
QVQLVESGGGLVQAGGSLRLSCAASGGIFAPYAMGWYRQAPGKERELVAAISSSDGSTYYADSVKGSFTISRDNAKNTVYLQMNSLKPEDTAVYYCAADYREDYGYWGQGTQVTVSS | low polyreactivity
QVQRVESGGGLLQAGRSLRLSCAASGTIFYHYAMGWYRQAPGKERELVAAMTRSGGSTYYADSVKGRFTISRDNAKNTVYLQMNSLNPEDTAVYYCAKDPDSYNFLTSNWYDYWGQGTQVTVCS | low polyreactivity
QVQLVESGGGLVQAGGSLRLSCAASGRPLGQNVMGWYRQAPGKERELVAASSSNTAGNTYYADSVKGRFTISRDNAKNTVYLQMNSLKAEDTAVYYCAKVDSFEAKLDYWGQGTQVTVSS | low polyreactivity
QVQLVESGGGLVQAGGSLRLRCAASGRIYCDNATGRYRQAPGKESELVAPISDSVVITYYADSVKGRFTISRDNAKNTLYVQMNSLKPEDTAVYYCAADKRGTVYLSSFWMDYWGQGTQVTVSS | low polyreactivity
QVQLVESGGGLVQAGGSLRLSCAASGSTLRRYAMGWYRQAPGKERELVAAISGSGDSTYYADSVKGRFTISRDIAKNTVYLQMNSLKPEDTAVYYCNAVYAFNGYDYWGQGTQVTVSS | low polyreactivity
QVQLVESGGGLVQAGGSLRLSCAASGRIFASYAMGWYRQAPGKERELVAAISWGDDSTYYADSVKGRFTISRDNAKNTVYLQMNSLKPEDTAVYYCAAAFWFGPYRLYYWGQGTQVTVSS | high polyreactivity
QVQLLESGGGLVQAGRSLRLSCAASGRIFVYYAMGWYRQAPGQERELVATISWSGGSTYYADSVKGRFTISRDNAKNTVYLELNSLKPEDTAVYYCAAEKYISYYSVKRQENGYWGQGSQVTVSS | low polyreactivity
QVQLVESGGGLVQAGGSLRLSCAASGRTFVSTAMGWYRQAPGKERELVAGMSQRGGSTYYADSVKGRFTISRDNAKNTVYLHMNSMKPEDTAVYYCNAVSRAYFYGAYGPYTRFNYWGQGTQVTVSS | high polyreactivity
QVQLVESGGGLVQAGGSLRLSCAASGSIFRWYAMGWYRKAPGKERELVARITVSGGSTYYADSVKGRFTISRDNAKNTVYLEMNSLKPEDTAVYYCNARAHYTPDGGGDYWGQGTQVTVSS | high polyreactivity
PVQLVESGGGLVQAGGSLRLSCAASGRIFSSYTMGWNIQAPGKERELVAAISWRGGSTYYADSVKGRFTISRDNAKNTVYLLMNSLKPEDTAVYYCAADSRSHPGDYWGHGTQVTVSS | low polyreactivity
QVQLVESGGGLVQAGGSLRLSCAASGFTFAYYAMGWYRQAPGKERELVAAITSRGGSTYYADSVKGRFTISRDNAKNTVYLQMNSLKPEDTAVYYCATKRVLTGYDSWGQGTQVTVSS | high polyreactivity
QVQLVESGGGLVQAGGSLRLSCAASGFTFTWNTMGWYRQAPGKERELVAAITTGGRTYYADSVKGRFTISRDNAKNTVYLQMNSLKPEDTAVYYCNKLFIAKYDSWGQGTQVTVSS | high polyreactivity
QVQLVESGGGLVQAGGSLRLISAASGFIFRYNAMGWYRQAPGKESELVATISSGGGNTYYADSVKGRFTISRDNAKNTVYLQMNSLKPEDTAVYYCAARRYYGVYYAFYYWGQGTQVTVSS | high polyreactivity

Sequence | polyreactivity (PSR sort gate)
QVQLVESGGGLVQAGGSLRLSCAASGRIFRGYAMGWSRQAPGKERELVAAITSRGGSTYADSVKGRFTISRDNAKNTVYLQMNSLKPEDTAVYYCNAKEGSRYRKYDYWGQGTQVTVSS | low polyreactivity
QVQLVESGGGLVQAGGSLRLSCAASGRIFPGYAMGWYRQAPGKERELVAAISGSGVRTYYADSVKGRFTISRDNAKNTVYLQMNSLKPEDTAVYYCAADSKIRTKLDYWGQGTQVTVSS | low polyreactivity
QVQLVESGGGLVQAGGSLRLSCAASGRTFRFDAMGWYRQAPGKEREFVAAISRSVGSTYYADSVKGRFTISRDNAKTTVYLQMNSLKPEDTAVYYCNGDYRSRYVEYDYWGQGTQVTVSS | high polyreactivity
QVQLVESGGCLVQAGGSLRLSCAACGITFSGYDMGWYRQAPGKERELVADITISTGSTYYADSVKGRFTISRDNAKNTVYLQMNSLKPEDTAVYYCAASPFDYWYDYYGLYKEYYYWRQGTQVTVSS | low polyreactivity
QVQLVESGGGLVQAGGSLRLSCAASGRTFHLYAIGWSRQAAGKERELVAAINSGGRTNYADSVKGRFTISLDNAKNTVYLQLNSLKPEDTAVYYCAARANPYVLKYYYWGQGSQVTVSS | high polyreactivity
QVQLVESGGALVQAGGSLRLSCAASGSIFKKYAMGWYRPAPGKERELVAAITRGTYYADSVKGRFTISRVNAKNTVYLQMNSLKPEDTAVYYCNREYWGRGYYRVRGEYDYWGQGTQFTVSS | low polyreactivity
QVQLVESGGGLVQAGGSLRLSCAASGSIFEWNDMGWYRQAPGKEREFVAAITSTDDGTYYADSVKGRFTISRDNAKNTVYLQMNSLKPEVTAVYYCAVDYWDVPYYWGQGTQVTVSS | low polyreactivity
QVQLVESGGGLVQAGGSLRLSCAASGNTFQWYVMGWYRQAPGKERELVAAITTRGGSTYYADSVKGRFTISRDNAKNTVYLQMNSLKPEDTAVYYCAKDWYASWYTKYDYWGQGTQVTVSS | low polyreactivity
QVQLVESGGGLVQSGVSLRLSCAASGITFYSIAIGWYRPATGKEMELVAANTRRGGSKLNADSVKGRFTNSRDNSKNTVYLQMNSLKPEDTAVYFCAADVPWWSYSDDYWGQGTKVTVSS | high polyreactivity
QVQLVESGGGLVQAGGSLRLSCAASGRTFIGYAMGWYRQAPGKERELVAAISSSGGRTYYADSVKGRFTISRDNAKNTVYLQMNSLKPEDTAVYYCATGSWARDYYYWGQGTQVTVSS | high polyreactivity
QVQLVESAAGLVQAGGSLRLSCAASGLTFTTYDKGWYTQAPRKQRELFAAISRGGSRTYYADSVKGRFTISRDNAKNTVYLQMNSLKPEDTAVYYGNALTGSFTTYSFDFWGQGTQVTVSS | high polyreactivity
QVQLVESGGGLVQAGGSLRLSCAASGRIFYPYAMGWYRQAPGKERDLVAAIRRSGVDTYYADSVKGRFTISRDNAKNTVYLQMNSLKPEDTAVYYCNKDGGGDSYWYDYWGQGTQVTVSS | low polyreactivity
QVQLVESGGGLVQAGGSLRLSCAATGLIFSRNAMGWYRQAPGKERELVAAISTGGSTYYADSVKGRFTISRDNAKITVYLQMNSLKPEDTAVYYCAAAPGYIYEYWGQGTQVTVSS | low polyreactivity
QVQLVESGGGLVQAGGSLRLSCAASGIIFTVYTMGWYRQAPGKERELVAAITTNGGSTYYADSVKGRFTISRDNAKNTVYLQMNSLKPEDTAVYYCAADYPYKPITYDYWGQGTQVTVSS | low polyreactivity
QVQLVESGGGLVQAGGSLRLSCAASGSIFGYNDMGWYRQAPGKERELVATITWGGGRTRYADSVKGRFTISRDNAKNTVYFQMNSLKPEDTAVYYCAAGYYRLWVRYDYWGQGTQVTVSS | low polyreactivity
QVQLVESGGGLVQAGGSLRLSCDPSGLTFNTYAMGWYRQAPGKERELVAAISSDGSTYYADSVKGRFTITRDNAKNTVYLQMNSLKPEDTAVYYCAATSFWWDLAGYYHWYDYWGQGTQVTVSS | high polyreactivity
QVQLGDSGGGLVQAGGSLRLSCAPSGSIFQRYAMGWYRLAPGKERELVAAISYNGGSTYYADSVKGRFTISRDNAKNTVYLQMNSLKPEDTAVYYCAARGYRKTRFDYWGQGTKVTVSS | high polyreactivity
QVQLVESGGGLVQAGGSLRLSCAASGSIFTYNAMGWYRQAPGKERELVAAITGDDITNYADSVKGRFTISRDNAKNTVYLQMNSLKPEYTAVYYCARDQWVFGSSPVQAGEYWGQGTQVTVSS | low polyreactivity
QVQLVESGGGLVQAGGSLRLSCAASGSIFYYNAMGWSRQAPGKERELVAGIRRSGDSTYYADSVKGRFTISRDNAKNTVYLQMNSLKPEDTAVYYCAAYLYLEYYYWGQGTQVTVSS | low polyreactivity
QVQLGESGGGLVQAGGSLRLSCAASGFTFTRYAMGWYRQAPGKERELVAAIRWSGGRTYFADSVKGRFTISRDNAKNTVYLEMNRLKPEDTAVYYCNAVFYDPRREYDYWGQGTQVTVSS | high polyreactivity
KVQLVESGGGLVQAGGSLRLSCAASGRTFPYYVMGWYRQAHGKERELVAAIDVGGGSTYYADSVKGRFTISRDNAKNTVYLQMNSLKPEVTAVYYCAAQVDYLAHYGYWGQGTQVTVSS | low polyreactivity
